Consider two substances from publication PMC2132682.

This test has as its target GST-NRX (cytoplasmic domain of Neurexin) (Drosophila) (UniProt Q94887). As to the kind of experiment: pull-down.
Sequence of UniProt Q94887 (Q94887 1239-1284): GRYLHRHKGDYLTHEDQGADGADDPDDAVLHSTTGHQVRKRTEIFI

“32P-labeled Coracle (cDNA3 isoform, recombinant) (natural protein)” came in with a % relative binding of 100%.

Substance “unlabeled Coracle (cDNA3 isoform, recombinant) (natural protein)” showed a % relative binding of 32P-COR to NRX with the competitor of 36.6%.
